Experimental data reported in IntAct's records for PubMed 15171681.

B1: Protein S100-P (Homo sapiens), P25815 (parent)
chain: MTELETAMGMIIDVFSRYSGSEGSTQTLTKGELKVLMEKELPGFLQSGKDKDAVDKLLKDLDANGDAQVDFSEFIVFVAAITSACHKYFEKAGLK
B2: Protein S100-A1 (Homo sapiens), P23297 (parent)
chain: MGSELETAMETLINVFHAHSGKEGDKYKLSKKELKELLQTELSGFLDAQKDVDAVDKVMKELDENGDGEVDFQEYVVLVAALTVACNNFFWENS
partner: B1 chain

Variants of: B1
Conditions: with S100A1, P23297

Variant	effect of a mutation on the interaction
I11A;I12A	disrupting interaction
F71A	disrupting interaction
F15A	disrupting interaction

Results, then the variant that gave them:

effect of a mutation on the interaction	Variant
decreasing interaction	I75G;V76G
disrupting interaction	I75G
disrupting interaction	F74V
disrupting interaction	F74G

Variants of: B2
Conditions: with S100P

effect of a mutation on the interaction	Variant
disrupting interaction	L12H;F16A;F72L
disrupting interaction	F16A
